Reference: the Human Domainome abundance scans (Beltran et al. 2025)

B1: Tumor protein p73, residues 487 to 549; numbered along this chain, O15350 (parent)
chain: YHADPSLVSFLTGLGCPNCIEYFTSQGLQSIYHLQNLTIEDLGALKIPEQYRMTIWRGLQDLK

Variants of: B1
Experiment: abundance fitness (aPCA) (normalised: wild type 0, dead -1); higher = more abundant; growth selection in yeast, the domain comes from the species named
Conditions: Homo sapiens

Abundance fitness, by site and new letter:
T12: P -1.1, M 0.021, F -0.092, H 0.01, I -0.032, R 0.058, V -0.061, W -0.216, G 0.1, S -0.05, D 0.236, Q 0.031, C -0.386, K 0.087, L -0.146, N 0.117, E 0.114
S9: K -0.017, R 0.048, D -0.114, Q 0.095, Y -0.237, E -0.019, H -0.345, G 0.103, C -0.312, P -0.134, M -0.207, W -0.411, T -0.052, F -0.194, N 0.086, V -0.373, L -0.131, I -0.347, A -0.101
P5: W 0.021, C 0.167, V 0.159, K 0.238, D 0.201, E 0.24, N 0.225, H 0.003, T 0.211, Q -0.005, M 0.334, L 0.073, I 0.209, F 0.046, A 0.11, R 0.085, G 0.134
C16: Q -0.504, D -0.923, M 0.002, H -0.047, S -0.389, R -0.407, T -0.163, E -0.8, K -0.322, A -0.176, I 0.146, F -0.144, P -1.01, Y -0.078, G -0.754, W -0.773
F10: K -1.32, N -0.804, W -0.296, R -0.962, P -0.748, A -0.535, D -1.06, Q -0.865, Y -0.294, L -0.307, E -1.02, H -0.971, T -0.823, C -0.588, S -0.867, M -0.424
S6: R 0.013, W -0.212, V -0.027, N -0.076, M -0.031, E 0.126, T -0.052, H -0.077, D 0.017, F -0.095, Y -0.197, Q 0.064, L -0.15, A 0.041, G 0.136, K -0.07, C 0.036
L11: N -1.12, T -0.858, A -0.599, I 0.039, M -0.115, W -0.914, C -0.13, K -0.681, E -0.825, S -1, F -0.031, Y -0.518, D -1.14, Q -0.053, G -0.923, H -0.806, P -1.17
Y1: K -0.153, I 0.336, D 0.23, S 0.078, H -0.075, L 0.075, C -0.172, V 0.173, T 0.109, M 0.18, A 0.003, P 0.161, R -0.175, F 0.201, Q -0.195, G -0.285, E 0.01, N 0.054
D4: W 0.181, N -0.15
L7: V -0.049, H -0.969, Q -1.01, F -0.266, R -1.01, K -0.984, W -0.847, M -0.023, S -0.831, G -0.936, A -0.257, T -0.157, C -0.4, P -0.782, E -0.512
A3: C 0.426, E 0.197, H 0.101, P 0.361, R 0.326, I 0.405, G 0.141, K 0.358, Q 0.311, N 0.024, W 0.209, D 0.08, S 0.268, M 0.349, L 0.311, Y 0.201, F 0.36, V 0.137
L14: K -0.174, T -0.307, M -0.136, V 0.024, D -0.923, S -0.407, Y -0.315, Q -0.298, I 0.009, E -0.53, A -0.193, F -0.493, R -0.353, W -0.542, P -0.949, G -0.989, H -0.231
N18: M -0.163, V -0.055, C -0.125, T -0.084, G 0.061, Q -0.03, D 0.049, S -0.12, A 0.042, H 0.04, L -0.139, E 0.033, I 0.005, K -0.163, P -0.288, Y -0.167
P17: L 0.023, C -0.08, I -0.122, N -0.154, Q 0.106, R -0.024, Y 0.017, T 0.028, W -0.14, A -0.081, F 0.036, H -0.031, M -0.007, E 0.047, K 0.075, V 0.007, D -0.044, S 0.015
C19: D -0.699, L 0.047, V 0.052, R -0.941, F 0.031, K -0.726, Y -0.233, H -0.399, W -0.454, E -0.236, M 0.048, N -0.511, P -0.97, G -0.559, A -0.033, Q 0.028, I -0.055
G13: V -0.223, F -0.172, S 0.034, E 0.047, L -0.124, C -0.142, Y -0.185, W -0.315, T -0.012, I -0.138, H 0.11, N 0.216, M -0.075, Q 0.024, A -0.021, R 0.008, P -0.183
I20: Y -0.1, K -0.185, R -0.111, P -0.626, E -0.057, Q -0.082, G -0.269, L 0.038, C -0.074, T -0.003, S -0.049, H -0.069, M 0.003, W -0.36, N -0.282, V 0.009, A -0.061, F -0.257
V8: F -0.045, A 0.106, P 0, T 0.117, S 0.005, G 0.228, K 0.235, H -0.024, Q 0.037, D 0.143, I -0.053, M 0.137, E 0.222, L 0.137, N -0.052, Y -0.016, C 0.006, R 0.132, W 0.083
H2: P 0, M 0.301, E 0.066, C 0.197, W 0.119, N 0.216, S 0.274, V -0.004, I 0.515, A -0.094, R 0.148, T 0.273, D -0.073, F 0.145, G -0.096, L 0.202, Y -0.031, Q 0.345
G15: L -0.616, V -0.606, M -0.463, I -0.937, A -0.124, C -0.226, H -0.26, Y -0.462, R -0.153, S -0.17, W -0.854, F -0.508, K -0.062, T -0.549, N -0.002, Q -0.124
E21: A -0.051, D 0.012, H -0.089, G 0.034, C -0.182, I -0.138
